Experimental data reported in US20240043505A1.

B1: Nb17 (VHH)
VHH: HVQLVESGGGLVQAGGSLRLSCAASGSIFSSNAMSWYRQAPGKQRELVASITSGGNADYADSVKGRFTISRDKNTVYPEMSSLKPADTAVYYCHAVGQEASAYAPRAYWGQGTQVTVSS
B2: Nb21 (VHH)
VHH: QVQLVESGGGLVQAGGSLRLSCAVSGLGAHRVGWFRRAPGKEREFVAAIGANGGNTNYLDSVKGRFTISRDNAKNTIYLQMNSLKPQDTAVYYCAARDIETAEYTYWGQGTQVTVSS

Tests used:
Conditions in all cases: remark: other sources report otherwise
[1] = target: T1, SARS-CoV-2 spike receptor-binding domain (RBD) (SARS-CoV-2), P0DTC2; experiment: indirect ELISA, RBD coated on plate, 4PL fit
[2] = target: receptor-binding domain (RBD) of the SARS-CoV-2 spike (S) glycoprotein (SARS-CoV-2), P0DTC2
[3] = target: T1, SARS-CoV-2 spike receptor-binding …; experiment: SPR (Biacore 3000), RBD immobilised, Nb as analyte, 1:1 Langmuir fit

Row | Binder | ELISA affinity [1] [nM] | Buried surface area [2] [Å^2] | Kd [3] [pM] | koff [3] [s⁻¹] | kon [3] [M⁻¹ s⁻¹]
1 | B1 | 0.45 | 921 |  |  | 
2 | B2 | 0.3 | 850 | < 1 | < 1e-06 | 3.79e+06
